Measured values taken from PMC9482650, “Quantitative fragmentomics allow affinity mapping of interactomes” (Nature Communications, 2022).
Positions count from the first letter of the chain named.

Tests used:
Assay in all cases: holdup assay
Parameters in all cases: key: below the threshold = too weak to quantify, mostly under pKd 3.1 to 4
Details in all cases: plain residues with an end cap or a label only (N-terminal biotin on a linker: ttds)
[1] = target: AHNAK1, Q09666
[2] = target: T1, APBA1_2, Q02410
T1 sequence (Q02410 742-832, limits assumed, looked up): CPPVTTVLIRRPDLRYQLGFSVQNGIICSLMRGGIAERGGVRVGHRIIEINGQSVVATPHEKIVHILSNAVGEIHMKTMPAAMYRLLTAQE

[3] = target: T2, ARHGEF11, O15085
T2 sequence (O15085 42-136, limits assumed, looked up): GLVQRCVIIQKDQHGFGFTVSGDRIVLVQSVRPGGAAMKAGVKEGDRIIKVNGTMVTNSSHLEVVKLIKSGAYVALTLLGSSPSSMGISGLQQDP

[4] = target: DLG1_1, Q12959
[5] = target: DLG2_3, Q15700
[6] = target: DLG4_2, P78352
Chain of DLG4_2, P78352 (P78352 155-259): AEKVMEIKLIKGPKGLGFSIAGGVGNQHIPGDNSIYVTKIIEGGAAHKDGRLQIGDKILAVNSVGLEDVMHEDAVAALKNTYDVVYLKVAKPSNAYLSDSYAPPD

[7] = target: T3, FRMPD1, Q5SYB0
T3 sequence (Q5SYB0 52-145, limits assumed, looked up): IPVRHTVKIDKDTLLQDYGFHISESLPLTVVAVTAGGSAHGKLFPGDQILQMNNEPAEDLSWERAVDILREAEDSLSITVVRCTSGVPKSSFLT

[8] = target: FRMPD2_2, Q68DX3
Chain of FRMPD2_2, Q68DX3 (Q68DX3 944-1038): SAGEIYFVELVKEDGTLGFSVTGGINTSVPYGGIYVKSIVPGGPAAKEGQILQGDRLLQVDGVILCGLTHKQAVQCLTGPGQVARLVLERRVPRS

[9] = target: FRMPD4, Q14CM0
Chain of FRMPD4, Q14CM0 (Q14CM0 67-160): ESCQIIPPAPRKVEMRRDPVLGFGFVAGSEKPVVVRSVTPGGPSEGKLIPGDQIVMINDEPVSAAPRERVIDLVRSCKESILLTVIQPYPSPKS

[10] = target: GORASP2, Q9H8Y8
[11] = target: GRASP, Q7Z6J2
Chain of GRASP, Q7Z6J2 (Q7Z6J2 96-193): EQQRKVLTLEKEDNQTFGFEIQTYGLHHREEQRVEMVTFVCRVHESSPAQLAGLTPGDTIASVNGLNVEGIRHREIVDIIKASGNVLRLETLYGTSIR

[12] = target: GRID2IP_1, A4D2P6
Chain of GRID2IP_1, A4D2P6 (A4D2P6 1-87): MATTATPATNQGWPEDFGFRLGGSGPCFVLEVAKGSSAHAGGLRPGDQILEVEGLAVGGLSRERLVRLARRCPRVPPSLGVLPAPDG

[13] = target: T4, GRIP1_3, Q9Y3R0
T4 sequence (Q9Y3R0 247-346, limits assumed, looked up): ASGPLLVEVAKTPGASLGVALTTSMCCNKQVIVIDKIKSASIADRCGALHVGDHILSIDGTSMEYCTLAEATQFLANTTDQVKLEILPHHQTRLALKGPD

[14] = target: T5, GRIP1_7, Q9Y3R0
T5 sequence (Q9Y3R0 999-1096, limits assumed, looked up): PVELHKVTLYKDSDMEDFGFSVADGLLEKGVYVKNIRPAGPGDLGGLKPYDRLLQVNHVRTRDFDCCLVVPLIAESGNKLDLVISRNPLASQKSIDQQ

[15] = target: GRIP2_5, Q9C0E4
Chain of GRIP2_5, Q9C0E4 (Q9C0E4 544-642): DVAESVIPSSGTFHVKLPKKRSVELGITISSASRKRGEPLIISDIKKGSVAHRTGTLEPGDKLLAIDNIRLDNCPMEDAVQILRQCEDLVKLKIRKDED

[16] = target: Inadl_1, Q8NI35
Chain of Inadl_1, Q8NI35 (Q8NI35 113-229): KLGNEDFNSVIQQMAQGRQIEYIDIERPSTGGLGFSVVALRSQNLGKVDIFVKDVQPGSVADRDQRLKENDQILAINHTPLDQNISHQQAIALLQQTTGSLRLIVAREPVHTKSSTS

[17] = target: Inadl_10, Q8NI35
Chain of Inadl_10, Q8NI35 (Q8NI35 1673-1763): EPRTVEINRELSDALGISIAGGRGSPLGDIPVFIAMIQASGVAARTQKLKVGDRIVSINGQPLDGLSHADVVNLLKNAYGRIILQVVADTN

[18] = target: T6, LIN7A, O14910
T6 sequence (O14910 103-200, limits assumed, looked up): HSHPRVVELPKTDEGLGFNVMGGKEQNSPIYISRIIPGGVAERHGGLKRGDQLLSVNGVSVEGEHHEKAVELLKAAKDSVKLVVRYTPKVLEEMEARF

[19] = target: T7, LIN7B, Q9HAP6
T7 sequence (Q9HAP6 88-185, limits assumed, looked up): T6 sequence (O14910 103-200, limits assumed, looked up) with S2A, V20I, I35V, E42D, H65Q, K77Q, D78G, K89R

[20] = target: MAGI2_3, Q86UL8
Chain of MAGI2_3, Q86UL8 (Q86UL8 600-682): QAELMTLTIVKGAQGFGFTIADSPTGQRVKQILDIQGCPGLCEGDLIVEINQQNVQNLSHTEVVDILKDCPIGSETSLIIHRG

[21] = target: T8, MPP2, Q14168
T8 sequence (Q14168 180-250, limits assumed, looked up): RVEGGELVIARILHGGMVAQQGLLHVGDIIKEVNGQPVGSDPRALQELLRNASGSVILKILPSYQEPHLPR

[22] = target: NHERF4_1, Q86UT5-2
Chain of NHERF4_1, Q86UT5-2 (Q86UT5 other isoform, or with tags, fused parts or gaps): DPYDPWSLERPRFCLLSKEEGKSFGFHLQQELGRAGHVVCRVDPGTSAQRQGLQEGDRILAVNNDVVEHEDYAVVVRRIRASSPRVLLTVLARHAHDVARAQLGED

[23] = target: NHERF4_4, Q86UT5
Chain of NHERF4_4, Q86UT5 (Q86UT5 464-550): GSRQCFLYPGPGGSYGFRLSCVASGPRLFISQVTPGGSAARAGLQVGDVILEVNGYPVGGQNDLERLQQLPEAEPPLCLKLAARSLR

[24] = target: T9, PCLO, Q9Y6V0
T9 sequence (Q9Y6V0 4491-4600, limits assumed, looked up): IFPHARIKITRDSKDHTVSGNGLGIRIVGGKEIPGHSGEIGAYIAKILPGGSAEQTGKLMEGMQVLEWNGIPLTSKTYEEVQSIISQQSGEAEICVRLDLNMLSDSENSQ

[25] = target: PTPN3, P26045
Chain of PTPN3, P26045 (P26045 505-587): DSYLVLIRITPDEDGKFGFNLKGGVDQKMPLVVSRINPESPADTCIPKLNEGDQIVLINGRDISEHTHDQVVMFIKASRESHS

[26] = target: T10, SNTG2, Q9NY99
T10 sequence (Q9NY99 68-166, limits assumed, looked up): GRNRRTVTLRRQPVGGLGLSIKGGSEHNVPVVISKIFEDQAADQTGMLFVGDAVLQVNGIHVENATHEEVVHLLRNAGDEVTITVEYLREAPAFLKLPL

[27] = target: T11, TX1BP3, O14907
T11 sequence (O14907 10-122, limits assumed, looked up): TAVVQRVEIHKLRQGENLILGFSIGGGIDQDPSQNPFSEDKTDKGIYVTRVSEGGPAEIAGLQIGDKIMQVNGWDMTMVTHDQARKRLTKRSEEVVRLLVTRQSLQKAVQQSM

Chain of AHNAK1, Q09666 (Q09666 4-100): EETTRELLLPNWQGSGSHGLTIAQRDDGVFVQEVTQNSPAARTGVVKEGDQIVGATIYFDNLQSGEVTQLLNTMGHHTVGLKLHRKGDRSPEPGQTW

In the case of GRLLGLETNV [ARHGEF26, Q96DR7], the pKd [1] is reported as “below the threshold”, the pKd [2] is reported as 4.23 and the pKd [3] is reported as “below the threshold”. The pKd [4] was 4.76, the pKd [5] was 4.54 and the pKd [6] was 4.85. The pKd [7] was “below the threshold”, the pKd [8] was 4.22 and the pKd [9] was “below the threshold”. For the same binder, the pKd [10] was 3.97, the pKd [11] was “below the threshold” and the pKd [12] was “below the threshold”. The pKd [13] was “below the threshold”, the pKd [14] was 4.11 and the pKd [15] was “below the threshold”. The pKd [16] was “below the threshold”, the pKd [17] was “below the threshold” and the pKd [18] was “below the threshold”. The pKd [19] was “below the threshold”, the pKd [20] was 3.9 and the pKd [21] was “below the threshold”. The pKd [22] was “below the threshold”, the pKd [23] was “below the threshold” and the pKd [24] was “below the threshold”. The pKd [25] was 4.69, the pKd [26] was 4.55 and the pKd [27] was 4.49.

With QRPYRRESEI [KCNJ12, Q14500] the pKd [1] was “below the threshold”, the pKd [2] was “below the threshold” and the pKd [3] was “below the threshold”. For the same binder, the pKd [4] was 4.04, the pKd [5] was 4.65 and the pKd [6] was 4.56. The pKd [7] was “below the threshold”, the pKd [8] was “below the threshold” and the pKd [9] was “below the threshold”. The pKd [10] was 3.74, the pKd [11] was “below the threshold” and the pKd [12] was “below the threshold”. The pKd [13] was 3.51, the pKd [14] was “below the threshold” and the pKd [15] was “below the threshold”. The pKd [16] was “below the threshold”, the pKd [17] was “below the threshold” and the pKd [18] was “below the threshold”. The pKd [19] was “below the threshold”, the pKd [20] was “below the threshold” and the pKd [21] was “below the threshold”. The pKd [22] was “below the threshold”, the pKd [23] was “below the threshold” and the pKd [24] was “below the threshold”. It also gave a pKd [25] of 4.65, a pKd [26] of 3.63 and a pKd [27] of 4.64.
